Values belong to the substance of their own block, whether it stands above or below them.
What was measured:
[1] = molecular target: unmodified and H2BK120ub nucleosomes; test: FRET or BRET
[2] = molecular target: Alexa Fluor 488-labeled H2BK120ub nucleosome, H2A(L65C), H3K79Nle (UniProt P0CG47); test: other fluorescence titration
[3] = molecular target: unmodified nucleosome, H3K79Nle, Alexa Fluor 488 on H2A(L65C) (human) (UniProt P62807); test: FRET or BRET

Kd [1]: 32 to 36 nM
Substance: Atto647N-labeled DOT1Lcat(C45A, C75A, C179A, N324C) (from UniProt Q8TEK3 1-416) (domain or fragment)

Kd [2]: 120 nM
Substance: DOT1Lcat (human DOT1L residues 1–416) (from UniProt Q8TEK3 1-416) (domain or fragment)

Kd [3]: 38 nM
Substance: DOT1Lcat(F326A, C45A, C75A, C179A, N324C), Atto647N-labeled (from UniProt Q8TEK3 1-416) (domain or fragment)
